Laboratory results: patent publication US20100310573A1

Biological target: recombinant human CD4 (catalogue number: 514-CD/CF, manufactured by R&D Systems) (human) (UniProt P01730)
Test: SPR, Biacore T100; antibody captured on anti-mouse IgG chip, recombinant human CD4 flowed; 1:1 binding model

Kd | koff | kon | Substance
2.9 nM | 0.00306 s⁻¹ | 1.05e+06 M⁻¹ s⁻¹ | anti-CD4 mouse monoclonal antibody OKT4 (manufactured by BioLegend)
0.117 nM | 0.000129 s⁻¹ | 1.1e+06 M⁻¹ s⁻¹ | Leu-3a (BD Biosciences), commercially available anti-human CD4 mouse antibody
0.352 nM | 0.000156 s⁻¹ | 444000 M⁻¹ s⁻¹ | 13B8.2 (Beckman Coulter), commercially available anti-human CD4 mouse antibody
